Key:
Recombinant Human IGF1R = biological target: T1, Recombinant Human IGF1R (human, UniProt P08069 31-932); assay: SPR (Biacore), N-terminal VD;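 also: capture of antibodies or DVD-Ig proteins on an anti-mouse IgG chip surface, recombinant antigen injected at 10–200 nM in HBS-EP running buffer at 25 °C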
T1 construct: bought reagent
Description: (§1) The BIACORE assay (Biacore, Inc, Piscataway, N.J.) determined the affinity of antibodies or DVD-Ig proteins with kinetic measurements of on-rate and off-rate constants. Binding of antibodies or DVD-Ig proteins to a target antigen (for example, a purified recombinant target antigen) was determined by surface plasmon resonance-based measurements with a Biacore® 1000 or 3000 instrument (Biacore AB, Uppsala. Sweden) using running HBS-EP (10 mM HEPES [pH 7.4], 150 mM NaCl, 3 mM EDTA, and 0.005% surfactant P20) at 25° C. […] For example, approximately 5000 RU of goat anti-mouse IgG, (Fcγ), fragment specific polyclonal antibody (Pierce Biotechnology Inc, Rockford, Ill.) diluted in 10 mM sodium acetate (pH 4.5) was directly immobilized across a CM5 research grade biosensor chip using a standard amine coupling kit according to manufacturer's instructions and procedures at 25 μg/ml. Unreacted moieties on the biosensor surface were blocked with ethanolamine. Modified carboxymethyl dextran surface in flowcell 2 and 4 was used as a reaction surface. Unmodified carboxymethyl dextran without goat anti-mouse IgG in flow cell 1 and 3 was used as the reference surface. For kinetic analysis, rate equations derived from the 1:1 Langmuir binding model were fitted simultaneously to association and dissociation phases of all eight injections (using global fit analysis) with the use of Biaevaluation 4.0.1 software. Purified antibodies or DVD-Ig proteins were diluted in HEPES-buffered saline for capture across goat anti-mouse IgG specific reaction surfaces. Antibodies or DVD-Ig proteins to be captured as a ligand (25 μg/ml) were injected over reaction matrices at a flow rate of 5 μl/minute. The association and dissociation rate constants, kₒₙ (M⁻¹s⁻¹) and koff (s⁻¹) were determined under a continuous flow rate of 25 μl/minute. Rate constants were derived by making kinetic binding measurements at different antigen concentrations ranging from 10-200 nM. The equilibrium dissociation constant (M) of the reaction between antibodies or DVD-Ig proteins and the target antigen was then calculated from the kinetic rate constants by the following formula: KD=koff/kₒₙ. Binding was recorded as a function of time and kinetic rate constants were calculated.

[1] = biological target: T2, Recombinant Human MSP Receptor ECD-His tag (human, UniProt Q04912 25-957); assay: SPR (Biacore), N-terminal VD;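 also: capture of antibodies or DVD-Ig proteins on an anti-mouse IgG chip surface, recombinant antigen injected at 10–200 nM in HBS-EP running buffer at 25 °C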
T2 construct: extracellular domain; bought reagent; also called RON
Description: as §1

[2] = biological target: T2, Recombinant Human MSP Receptor ECD-His …; assay: SPR (Biacore)
Description: as §1

[3] = biological target: T3, Recombinant Human ErbB3/FC Chimera-His tag (human, UniProt P21860 20-643); assay: SPR (Biacore), N-terminal VD;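 also: capture of antibodies or DVD-Ig proteins on an anti-mouse IgG chip surface, recombinant antigen injected at 10–200 nM in HBS-EP running buffer at 25 °C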
T3 construct: bought reagent
Description: as §1

B1: DVD2288 (bispecific antibody)
VH: EVQLVQSGAEVKKPGSSVKVSCKASGGTFSSYAISWVRQAPGQGLEWMGGIIPIFGTANYAQKFQGRVTITADKSTSTAYMELSSLRSEDTAVYYCARAPLRFLEWSTQDHYYYYYMDVWGKGTTVTVSSASTKGPEVQLVESGGGLVQPGGSLRLSCAASGFTFTDYTMDWVRQAPGKGLEWVADVNPNSGGSIYNQRFKGRFTLSVDRSKNTLYLQMNSLRAEDTAVYYCARNLGPSFYFDYWGQGTLVTVSS
VL: SSELTQDPAVSVALGQTVRITCQGDSLRSYYATWYQQKPGQAPILVIYGENKRPSGIPDRFSGSSSGNTASLTITGAQAEDEADYYCKSRDGSGQHLVFGGGTKLTVLGQPKAAPDIQMTQSPSSLSASVGDRVTITCKASQDVSIGVAWYQQKPGKAPKLLIYSASYRYTGVPSRFSGSGSGTDFTLTISSLQPEDFATYYCQQYYIYPYTFGQGTKVEIK
notes: DVD-Ig, outer AB075 / inner AB080
Question: What does the source list for B1?
Answer: Kd (Recombinant Human IGF1R): 12 nM; koff (Recombinant Human IGF1R): 0.00026 s⁻¹; kon (Recombinant Human IGF1R): 22000 M⁻¹ s⁻¹

B2: DVD2316 (bispecific antibody)
VH: EVQLVQSGGGLVKPGGSLRLSCAASGFTFSSYAMHWVRQAPGKGLEWVAVISYDGSNKYYADSVKGRFTISRDNSKNTLYLQMNSLRAEDTAVYYCARFSGWPNNYYYYGMDVWGQGTTVTVSSASTKGPEVQLVESGGGLVQPGGSLRLSCAASGFTFTDYTMDWVRQAPGKGLEWVADVNPNSGGSIYNQRFKGRFTLSVDRSKNTLYLQMNSLRAEDTAVYYCARNLGPSFYFDYWGQGTLVTVSS
VL: DVVMTQSPLSLPVTPGEPASISCRSSQSLLHSNGFNYVDWYLQKPGQSPHLLIYFGSYRASGVPDRFSGSGSGTDFTLKISRVEAEDVGVYYCMQALQTPPWTFGQGTKVEIRRTVAAPDIQMTQSPSSLSASVGDRVTITCKASQDVSIGVAWYQQKPGKAPKLLIYSASYRYTGVPSRFSGSGSGTDFTLTISSLQPEDFATYYCQQYYIYPYTFGQGTKVEIK
notes: DVD-Ig, outer AB005 / inner AB080
Question: Which results are given for B2?
Answer: Kd [1]: 19 nM; koff [1]: 0.00089 s⁻¹; kon [1]: 46000 M⁻¹ s⁻¹

B3: DVD2208 (bispecific antibody)
VH: EVQLVQSGGGLVKPGGSLRLSCAASGFTFSSYAMHWVRQAPGKGLEWVAVISYDGSNKYYADSVKGRFTISRDNSKNTLYLQMNSLRAEDTAVYYCARFSGWPNNYYYYGMDVWGQGTTVTVSSASTKGPQVQLQESGPGLVKPSEILSLTCTVSGGSISSHYWSWVRQPPGKGLEWIGYIYYSGSTNYNPSLKSRVTISVDTSKNQFSLNLSSVTAADTAVYYCARIPNYYDRSGYYPGYWYFDLWGRGTLVTVSS
VL: DVVMTQSPLSLPVTPGEPASISCRSSQSLLHSNGFNYVDWYLQKPGQSPHLLIYFGSYRASGVPDRFSGSGSGTDFTLKISRVEAEDVGVYYCMQALQTPPWTFGQGTKVEIRRTVAAPQAVLTQPSSLSAPPGASASLTCTLRSGFNVDSYRISWYQQKPGSPPQYLLRYKSDSDKQQGSGVPSRFSGSKDASANAGILLISGLQSEDEADYYCMIWHSSAWVFGGGTKLTVL
notes: DVD-Ig, outer AB005 / inner AB034
Question: Which Kd [2] does the source give for B3 here?
Answer: The Kd was 16 nM.

Question: What about the koff [2] of the same binder?
Answer: Its koff is 0.0013 s⁻¹.

Question: And the kon [2]?
Answer: Its kon is 83000 M⁻¹ s⁻¹.

B4: DVD2209 (bispecific antibody)
VH: QVQLQESGPGLVKPSEILSLTCTVSGGSISSHYWSWVRQPPGKGLEWIGYIYYSGSTNYNPSLKSRVTISVDTSKNQFSLNLSSVTAADTAVYYCARIPNYYDRSGYYPGYWYFDLWGRGTLVTVSSASTKGPEVQLVQSGGGLVKPGGSLRLSCAASGFTFSSYAMHWVRQAPGKGLEWVAVISYDGSNKYYADSVKGRFTISRDNSKNTLYLQMNSLRAEDTAVYYCARFSGWPNNYYYYGMDVWGQGTTVTVSS
VL: QAVLTQPSSLSAPPGASASLTCTLRSGFNVDSYRISWYQQKPGSPPQYLLRYKSDSDKQQGSGVPSRFSGSKDASANAGILLISGLQSEDEADYYCMIWHSSAWVFGGGTKLTVLRTVAAPDVVMTQSPLSLPVTPGEPASISCRSSQSLLHSNGFNYVDWYLQKPGQSPHLLIYFGSYRASGVPDRFSGSGSGTDFTLKISRVEAEDVGVYYCMQALQTPPWTFGQGTKVEIR
notes: DVD-Ig, outer AB034 / inner AB005
Question: With B4 as the binder, how does the Kd [2] read?
Answer: Its Kd is 23 nM.

B5: DVD2210 (bispecific antibody)
VH: B3 VH
VL: DVVMTQSPLSLPVTPGEPASISCRSSQSLLHSNGFNYVDWYLQKPGQSPHLLIYFGSYRASGVPDRFSGSGSGTDFTLKISRVEAEDVGVYYCMQALQTPPWTFGQGTKVEIRRTVAAPSVFIFPPQAVLTQPSSLSAPPGASASLTCTLRSGFNVDSYRISWYQQKPGSPPQYLLRYKSDSDKQQGSGVPSRFSGSKDASANAGILLISGLQSEDEADYYCMIWHSSAWVFGGGTKLTVL
notes: as for B3
Question: What does the source list for B5?
Answer: Kd [2]: 15 nM; koff [2]: 0.0017 s⁻¹; kon [2]: 110000 M⁻¹ s⁻¹

B6: DVD2211 (bispecific antibody)
VH: B4 VH
VL: QAVLTQPSSLSAPPGASASLTCTLRSGFNVDSYRISWYQQKPGSPPQYLLRYKSDSDKQQGSGVPSRFSGSKDASANAGILLISGLQSEDEADYYCMIWHSSAWVFGGGTKLTVLRTVAAPSVFIFPPDVVMTQSPLSLPVTPGEPASISCRSSQSLLHSNGFNYVDWYLQKPGQSPHLLIYFGSYRASGVPDRFSGSGSGTDFTLKISRVEAEDVGVYYCMQALQTPPWTFGQGTKVEIR
notes: as for B4
Question: B6 was tested. Which Kd [2] did it give?
Answer: Its Kd is 15 nM.

B7: DVD2212 (bispecific antibody)
VH: EVQLVQSGGGLVKPGGSLRLSCAASGFTFSSYAMHWVRQAPGKGLEWVAVISYDGSNKYYADSVKGRFTISRDNSKNTLYLQMNSLRAEDTAVYYCARFSGWPNNYYYYGMDVWGQGTTVTVSSASTKGPSVFPLAPQVQLQESGPGLVKPSEILSLTCTVSGGSISSHYWSWVRQPPGKGLEWIGYIYYSGSTNYNPSLKSRVTISVDTSKNQFSLNLSSVTAADTAVYYCARIPNYYDRSGYYPGYWYFDLWGRGTLVTVSS
VL: B3 VL
notes: as for B3
Question: How did the Kd [2] turn out when B7 was run?
Answer: The Kd was 16 nM.

Question: And the koff [2]?
Answer: The koff was 0.0012 s⁻¹.

Question: What about the kon [2] of the same binder?
Answer: Its kon is 74000 M⁻¹ s⁻¹.

B8: DVD2213 (bispecific antibody)
VH: QVQLQESGPGLVKPSEILSLTCTVSGGSISSHYWSWVRQPPGKGLEWIGYIYYSGSTNYNPSLKSRVTISVDTSKNQFSLNLSSVTAADTAVYYCARIPNYYDRSGYYPGYWYFDLWGRGTLVTVSSASTKGPSVFPLAPEVQLVQSGGGLVKPGGSLRLSCAASGFTFSSYAMHWVRQAPGKGLEWVAVISYDGSNKYYADSVKGRFTISRDNSKNTLYLQMNSLRAEDTAVYYCARFSGWPNNYYYYGMDVWGQGTTVTVSS
VL: B4 VL
notes: as for B4
Question: With B8 as the binder, how does the Kd [2] read?
Answer: The Kd was 18 nM.

B9: DVD2278 (bispecific antibody)
VH: EVQLVQSGAEVKKPGSSVKVSCKASGGTFSSYAISWVRQAPGQGLEWMGGIIPIFGTANYAQKFQGRVTITADKSTSTAYMELSSLRSEDTAVYYCARAPLRFLEWSTQDHYYYYYMDVWGKGTTVTVSSASTKGPEVQLVESGGGLVQPGGSLRLSCAASGFTFSIYSMNWVRQAPGKGLEWVSYISSSSSTIYYADSVKGRFTISRDNAKNSLYLQMNSLRDEDTAVYYCARDRGDFDAFDIWGQGTMVTVSS
VL: SSELTQDPAVSVALGQTVRITCQGDSLRSYYATWYQQKPGQAPILVIYGENKRPSGIPDRFSGSSSGNTASLTITGAQAEDEADYYCKSRDGSGQHLVFGGGTKLTVLGQPKAAPDIQMTQSPSSLSASVGDRVTITCQASQDITNYLNWYQQKPGKAPKLLIYDASNLETGVPSRFSGSGSGTDFTFTISSLQPEDIATYNCQQCENFPITFGQGTRLEIK
notes: DVD-Ig, outer AB075 / inner AB063
Question: Which Kd (Recombinant Human IGF1R) does the source give for B9 here?
Answer: Its Kd is 8.6 nM.

Question: And the koff (Recombinant Human IGF1R)?
Answer: The koff was 0.00021 s⁻¹.

Question: And the kon (Recombinant Human IGF1R)?
Answer: The kon was 25000 M⁻¹ s⁻¹.

B10: DVD2281 (bispecific antibody)
VH: EVQLLESGGGLVQPGGSLRLSCAASGFTFSHYVMAWVRQAPGKGLEWVSSISSSGGWTLYADSVKGRFTISRDNSKNTLYLQMNSLRAEDTAVYYCTRGLKMATIFDYWGQGTLVTVSSASTKGPEVQLVQSGAEVKKPGSSVKVSCKASGGTFSSYAISWVRQAPGQGLEWMGGIIPIFGTANYAQKFQGRVTITADKSTSTAYMELSSLRSEDTAVYYCARAPLRFLEWSTQDHYYYYYMDVWGKGTTVTVSS
VL: QSALTQPASVSGSPGQSITISCTGTSSDVGSYNVVSWYQQHPGKAPKLIIYEVSQRPSGVSNRFSGSKSGNTASLTISGLQTEDEADYYCCSYAGSSIFVIFGGGTKVTVLGQPKAAPSSELTQDPAVSVALGQTVRITCQGDSLRSYYATWYQQKPGQAPILVIYGENKRPSGIPDRFSGSSSGNTASLTITGAQAEDEADYYCKSRDGSGQHLVFGGGTKLTVL
notes: DVD-Ig, outer AB116 / inner AB075
Question: Which Kd [3] does the source give for B10 here?
Answer: The Kd was 6.1 nM.

Question: And the koff [3]?
Answer: Its koff is 0.00024 s⁻¹.

Question: What about the kon [3] of the same binder?
Answer: Its kon is 40000 M⁻¹ s⁻¹.

B11: DVD2282 (bispecific antibody)
VH: EVQLVQSGAEVKKPGSSVKVSCKASGGTFSSYAISWVRQAPGQGLEWMGGIIPIFGTANYAQKFQGRVTITADKSTSTAYMELSSLRSEDTAVYYCARAPLRFLEWSTQDHYYYYYMDVWGKGTTVTVSSASTKGPQVQLQQWGAGLLKPSETLSLTCAVYGGSFSGYYWSWIRQPPGKGLEWIGEINHSGSTNYNPSLKSRVTISVETSKNQFSLKLSSVTAADTAVYYCARDKWTWYFDLWGRGTLVTVSS
VL: SSELTQDPAVSVALGQTVRITCQGDSLRSYYATWYQQKPGQAPILVIYGENKRPSGIPDRFSGSSSGNTASLTITGAQAEDEADYYCKSRDGSGQHLVFGGGTKLTVLGQPKAAPDIEMTQSPDSLAVSLGERATINCRSSQSVLYSSSNRNYLAWYQQNPGQPPKLLIYWASTRESGVPDRFSGSGSGTDFTLTISSLQAEDVAVYYCQQYYSTPRTFGQGTKVEIK
notes: DVD-Ig, outer AB075 / inner AB062
Question: What does the source list for B11?
Answer: Kd (Recombinant Human IGF1R): 5.2 nM; koff (Recombinant Human IGF1R): 0.00013 s⁻¹; kon (Recombinant Human IGF1R): 25000 M⁻¹ s⁻¹

Source: patent US20130195871A1 (AbbVie / Abbott, published 2013)
